{"source": "IntAct's records for PubMed 23213219", "parents": {"B1": {"name": "UL37 immediate early glycoprotein (Human cytomegalovirus (strain AD169) (HHV-5)), P16778 (parent)", "chain": "MSPVYVNLLGSVGLLAFWYFSYRWIQRKRLEDPLPPWLRKKKACALTRRSRHRLRRQHGVIDGENSETERSVDLVAALLAEAGEESVTEDTEREDTEEEREDEEEENEARTPEVNPIDAEGLSGLAREACEALKKALRRHRFLWQRRQRARMLQHNGPQQSHHAAVFCRVHGLRGFQVSVWLLLTLLWSTGHGVSVRCTYHGTDVNRTSNTTSMNCHLNCTRNHTQIYNGPCLGTEARLPLNVTFNQSRRKWHSVMLKFGFQYHLEGWFPLRVLNESREINVTEVHGEVACFRNDTNVTVGQLTLNFTGHSYVLRAIAHTSPFESYVRWEETNVTDNATSSENTTTVMSTLTKYAESDYIFLQDMCPRFLKRTVKLTRNKTKHNVTVTGNNMTTLPVWTPECKGWTYWTTLSVMWRNRRSALLRAKSRALGHWALLSICTVAAGSIALLSLFCILLIGLRRDLLEDFRYICRDEGSSSTKNDVHRIV"}}}
{"variants_of": "B1", "details": "with bax_human BAX"}
{"variant": "R139E", "effect of a mutation on the interaction": "decreasing interaction strength"}
{"variant": "L143A", "effect of a mutation on the interaction": "decreasing interaction strength"}
{"variant": "R146E", "effect of a mutation on the interaction": "decreasing interaction strength"}
